Columns and labels:
[1] = target: T1, hRev1 330-833 polymerase core (human, UniProt Q9UBZ9 330-833); assay: fluorescence polarization; 100 mM KCl; Fluorescence polarization: 1 nM FAM-DNA, 100 mM KCl or LiCl; DNA annealed in 50 mM HEPES pH 7.5; full buffer as in cited ref 17, temperature not stated. Footprinting: 50 mM HEPES pH 7.5, 100 mM KCl, 10 uM protein, 30 uM ssDNA, room temperature; settings: protein: recombinant
T1 sequence: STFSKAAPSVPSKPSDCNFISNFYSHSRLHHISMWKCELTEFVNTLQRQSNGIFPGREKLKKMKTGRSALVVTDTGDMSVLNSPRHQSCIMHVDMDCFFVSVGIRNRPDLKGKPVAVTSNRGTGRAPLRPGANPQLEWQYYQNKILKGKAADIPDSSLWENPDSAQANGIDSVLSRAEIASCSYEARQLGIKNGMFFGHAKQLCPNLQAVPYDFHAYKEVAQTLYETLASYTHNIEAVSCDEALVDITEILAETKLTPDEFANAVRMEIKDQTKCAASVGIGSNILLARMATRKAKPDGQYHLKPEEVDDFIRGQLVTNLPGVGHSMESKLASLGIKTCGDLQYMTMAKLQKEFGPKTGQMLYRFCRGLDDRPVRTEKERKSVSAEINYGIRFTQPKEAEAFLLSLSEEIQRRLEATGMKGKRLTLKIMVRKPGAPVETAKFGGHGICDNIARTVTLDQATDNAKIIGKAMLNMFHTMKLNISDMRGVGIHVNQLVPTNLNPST

[2] = target: T1, hRev1 330-833 polymerase core; assay: fluorescence polarization; 100 mM KCl (text: 406 +/- 38); Fluorescence polarization: 1 nM FAM-DNA, 100 mM KCl or LiCl; DNA annealed in 50 mM HEPES pH 7.5; full buffer as in cited ref 17, temperature not stated. Footprinting: 50 mM HEPES pH 7.5, 100 mM KCl, 10 uM protein, 30 uM ssDNA, room temperature; settings: protein: recombinant; label: 5'-FAM; hybrid G4 in K+
[3] = target: T1, hRev1 330-833 polymerase core; assay: fluorescence polarization; 100 mM KCl (text: 1246 +/- 196); Fluorescence polarization: 1 nM FAM-DNA, 100 mM KCl or LiCl; DNA annealed in 50 mM HEPES pH 7.5; full buffer as in cited ref 17, temperature not stated. Footprinting: 50 mM HEPES pH 7.5, 100 mM KCl, 10 uM protein, 30 uM ssDNA, room temperature; settings: protein: recombinant; label: 5'-FAM
[4] = target: T1, hRev1 330-833 polymerase core; assay: fluorescence polarization; 100 mM LiCl; Fluorescence polarization: 1 nM FAM-DNA, 100 mM KCl or LiCl; DNA annealed in 50 mM HEPES pH 7.5; full buffer as in cited ref 17, temperature not stated. Footprinting: 50 mM HEPES pH 7.5, 100 mM KCl, 10 uM protein, 30 uM ssDNA, room temperature; settings: protein: recombinant; label: 5'-FAM
[5] = target: T1, hRev1 330-833 polymerase core; assay: fluorescence polarization; 100 mM LiCl (text: 139 +/- 17); Fluorescence polarization: 1 nM FAM-DNA, 100 mM KCl or LiCl; DNA annealed in 50 mM HEPES pH 7.5; full buffer as in cited ref 17, temperature not stated. Footprinting: 50 mM HEPES pH 7.5, 100 mM KCl, 10 uM protein, 30 uM ssDNA, room temperature; settings: protein: recombinant; label: 5'-FAM; antiparallel G4 in K+
[6] = target: T1, hRev1 330-833 polymerase core; assay: fluorescence polarization; 100 mM KCl (text: 127 +/- 14); Fluorescence polarization: 1 nM FAM-DNA, 100 mM KCl or LiCl; DNA annealed in 50 mM HEPES pH 7.5; full buffer as in cited ref 17, temperature not stated. Footprinting: 50 mM HEPES pH 7.5, 100 mM KCl, 10 uM protein, 30 uM ssDNA, room temperature; settings: protein: recombinant; label: 5'-FAM; antiparallel G4 in K+
[7] = label: 5'-FAM on template, parallel G4 in 5' overhang 18 nt, 11 bp duplex

B1: Rev1-prom ss G4 (structured_DNA)
DNA: AGGGCGGGGCCGGGGAGGGTATGAGATGAT
- Kd ([1]; label: 5'-FAM, parallel G4 (1:4:1 loops as stated) in K+): 13 ± 3 nM

B2: TBA primer-template (mixed)
DNA 1: TGGTTGGTGTGGTTGGTATGAGATGAT
DNA 2: ATCATCTCATA
- Kd ([1]; label: 5'-FAM on template, antiparallel G4 in 5' overhang 16 nt, 11 bp duplex): 165 ± 25 nM

B3: hTelo-4 ss G4 (structured_DNA)
DNA: TTGGGTTAGGGTTAGGGTTAGGGATATGAGATGAT
- Kd [2]: 410 ± 40 nM

B4: Non-G4 Telo-4 control ss (ssDNA)
DNA: TTGCGTTAGCGTTAGCGTTAGCGATATGAGATGAT
- Kd [3]: 1200 ± 200 nM
- Kd [4]: 920 ± 120 nM

B5: hTelo-4 primer-template (mixed)
DNA 1: TTGGGTTAGGGTTAGGGTTAGGGATATGAGATGAT
DNA 2: ATCATCTCATA
- Kd ([1]; label: 5'-FAM on template, hybrid G4 in 5' overhang 24 nt, 11 bp duplex): 840 ± 50 nM

B6: TBA ss G4 (structured_DNA)
DNA: TGGTTGGTGTGGTTGGTATGAGATGAT
- Kd [5]: 140 ± 20 nM
- Kd [6]: 130 ± 10 nM

B7: Rev1-prom primer-template (mixed)
DNA 1: AGGGCGGGGCCGGGGAGGGTATGAGATGAT
DNA 2: ATCATCTCATA
- Kd ([1]; label: 5'-FAM on template, parallel G4 in 5' overhang 19 nt, 11 bp duplex): 11 ± 2 nM

B8: Non-G4 TBA control ss (ssDNA)
DNA: TGCTTGCTGTGCTTGCTATGAGATGAT
- Kd [4]: 310 ± 40 nM
- Kd ([1]; label: 5'-FAM): 380 ± 40 nM

B9: Non-G4 KRAS control ss (ssDNA)
DNA: AGCGCGCTGTGCGAAGAGCGAATATGAGATGAT
- Kd [4]: 1620 ± 800 nM
- Kd ([1]; label: 5'-FAM): 840 ± 90 nM

B10: KRAS 22RT primer-template (mixed)
DNA 1: AGGGCGGTGTGGGAAGAGGGAATATGAGATGAT
DNA 2: ATCATCTCATA
- Kd ([1]; label: 5'-FAM on template, parallel G4 in 5' overhang 22 nt, 11 bp duplex): 120 ± 10 nM

B11: Non-G4 KRAS primer-template (mixed)
DNA 1: AGCGCGCTGTGCGAAGAGCGAATATGAGATGAT
DNA 2: ATCATCTCATA
- Kd ([1]; label: 5'-FAM on template, 5' overhang 22 nt, 11 bp duplex): 1120 ± 80 nM

B12: KRAS 22RT ss G4 (structured_DNA)
DNA: AGGGCGGTGTGGGAAGAGGGAATATGAGATGAT
- Kd ([1]; label: 5'-FAM, parallel G4 in K+): 52 ± 10 nM

B13: Non-G4 Bcl2 control ss (ssDNA)
DNA: AGCGGCGCGCGCTTTAGGAAAAGCGCGCGTTATGAGATGAT
- Kd [4]: 750 ± 340 nM
- Kd ([1]; label: 5'-FAM): 830 ± 310 nM

B14: Bcl2 1245 primer-template (mixed)
DNA 1: AGGGGCGGGCGCTTTAGGAAAAGGGCGGGTTATGAGATGAT
DNA 2: ATCATCTCATA
- Kd ([1]; label: 5'-FAM on template, parallel G4 in 5' overhang 30 nt, 11 bp duplex): 97 ± 20 nM

B15: Non-G4 Bcl2 primer-template (mixed)
DNA 1: AGCGGCGCGCGCTTTAGGAAAAGCGCGCGTTATGAGATGAT
DNA 2: ATCATCTCATA
- Kd ([1]; label: 5'-FAM on template, 5' overhang 30 nt, 11 bp duplex): 660 ± 120 nM

B16: Bcl2 1245 ss G4 (structured_DNA)
DNA: AGGGGCGGGCGCTTTAGGAAAAGGGCGGGTTATGAGATGAT
- Kd ([1]; label: 5'-FAM, parallel G4 (13-nt loop) in K+): 76 ± 16 nM

B17: Non-G4 Rev1-prom primer-template (mixed)
DNA 1: AGCGCGCGGCCGGCGAGCGTATGAGATGAT
DNA 2: ATCATCTCATA
- Kd ([1]; label: 5'-FAM on template, 5' overhang 19 nt, 11 bp duplex): 154 ± 30 nM

B18: Myc 14/23 primer-template (mixed)
DNA 1: AGGGTGGGTAGGGTGGGTTATGAGATGAT
DNA 2: ATCATCTCATA
- Kd [1, 7]: 59 ± 9 nM

B19: Myc 2/11 ss G4 (structured_DNA)
DNA: AGGGAGGGTGGGAAGGGTTATGAGATGAT
- Kd ([1]; label: 5'-FAM, parallel G4 (1:1:2 loops) in K+): 22 ± 3 nM

B20: Myc 2/11 primer-template (mixed)
DNA 1: AGGGAGGGTGGGAAGGGTTATGAGATGAT
DNA 2: ATCATCTCATA
- Kd [1, 7]: 45 ± 6 nM

B21: Non-G4 Rev1-prom control ss (ssDNA)
DNA: AGCGCGCGGCCGGCGAGCGTATGAGATGAT
- Kd [4]: 260 ± 120 nM
- Kd ([1]; label: 5'-FAM): 370 ± 70 nM
